From FireProtDB (doi:10.1002/pro.381)

B1: Guanyl-specific ribonuclease Sa, P05798 (parent)
chain: DVSGTVCLSALPPEATDTLNLIASDGPFPYSQDGVVFQNRESVLPTQSYGYYHEYTVITPGARTRGTRRIITGEATQEDYYTGDHYATFSLIDQTC

Variants of: B1
Settings: Kitasatospora aureofaciens, pH 7, CD, MOPS 30 mM, structure 1RGG, whole UniProt chain shown

Row | Variant | ddG of mutation (higher = less stable) (60 °C, Thermal) [kcal/mol] | heat capacity change of unfolding (60 °C, Thermal) [kcal/mol/K] | Tm (Thermal) [°C] | change of melting temperature, mutant - wild type (higher = more stable) (Thermal) [°C] | heat capacity change of unfolding (Thermal) [kcal/mol/K] | unfolding enthalpy (van 't Hoff) (Thermal) [kcal/mol] | ddG of mutation (higher = less stable) (25 °C, GdnHCl) [kcal/mol] | denaturant m value (25 °C, GdnHCl) [kcal/mol/M] | denaturant midpoint (higher = more stable) (25 °C, GdnHCl) [M] | unfolding free energy (25 °C, GdnHCl) [kcal/mol] | ddG of mutation (higher = less stable) (25 °C, Urea) [kcal/mol] | denaturant m value (25 °C, Urea) [kcal/mol/M] | denaturant midpoint (higher = more stable) (25 °C, Urea) [M] | unfolding free energy (25 °C, Urea) [kcal/mol]
1 | DVSGTVCLSALPPEATDTLNLIASKGPFPYPQDGVVFQNREGVLPTQPYGYYHEYTVITPGARTRGTRRDITGKAPGEFYYTGDHYATFSLIDQTC | 9.5 | 1.08 | 41.5 | -35.6 | 1.08 | 78 | – | – | – | – | – | – | – | –
2 | DVSGTVCLSALPPEATDTLNLIASKGPFPYPQDGVVFQNREGVLPTQPYGYYHEYTVITPGARTRGTRRIITGKAPGEDYYTGDHYATFSLIDQTC | -5.3 | 1.68 | 66.6 | 17.3 | 1.68 | 105 | -3.9 | 2.52 | 4.44 | 11.2 | – | – | – | –
3 | DVSGTVCLSALPPEATDTLNLIASKGPFPYPQDGVVFQNREGVLPTQPYGYYHEYTVITPGARTRGTRRIITGKAPGEDYYTGDHYATFSLDDQTC | 9.6 | 1.41 | 34 | -32.6 | 1.41 | 73 | 5.1 | 2.67 | 0.83 | 2.2 | – | – | – | –
4 | DVSGTVCLSALPPEATDTLNLIASKGPFPYSQDGVVFQNRESVLPTQSYGYYHEYTVITPGARTRGTRRIITGKATQEDYYTGDHYATFSLIDQTC | -0.8 | – | 51.5 | 2.2 | – | 92 | 0.2 | 2.61 | 2.7 | 7.1 | -0.8 | 1.02 | 6.51 | 6.6
5 | DVSGTVCLSALPPEATDTLNLIASKGPFPYPQDGVVFQNREGVLPTQPYGYYHEYTVITPGARTRGTRRIITGKAPGEAYYTGDHYATFSLIDQTC | -2.2 | 1.15 | 75.3 | 8.7 | 1.15 | 102 | -4.9 | 2.4 | 5.05 | 12.1 | – | – | – | –
6 | DVSGTVCLSALPPEATDTLNLIASKGPFPYPQDGVVFQNREGVLPTQPYGYYHEYTVITPGARTRGTRRIITGKAPGEFYYTGDHYATFSLIDQTC | -7.7 | 1.07 | – | – | – | – | -6.3 | 2.51 | 5.4 | 13.6 | – | – | – | –
7 | DVSGTVCLSALPPEATDTLNLIASKGPFPYPQDGVVFQNREGVLPTQPYGYYHEYTVITPGARTRGTRRIITGKAPGEFYYTGDHYATFSLADQTC | 3.2 | 1.33 | 63.9 | -13.3 | 1.33 | 102 | -1.9 | 2.78 | 3.22 | 9.2 | – | – | – | –
8 | DVSGTVCLSALPPEATDTLNLIASKGPFPYPQDGVVFQNREGVLPTQPYGYYHEYTVITPGARTRGTRRIITGKAPGEFYYTGDHYATFSLDDQTC | 7.1 | 1.41 | 50.2 | -26.9 | 1.41 | 84 | 2.2 | 2.73 | 2.01 | 5.5 | – | – | – | –
9 | DVSGTVCLSALPPEATDTLNLIASKGPFPYPQDGVVFQNREGVLPTQPYGYYHEYTVITPGARTRGTRRIITGKAPGEFAYTGDHYATFSLIDQTC | 4.8 | 1.29 | 58 | -19.2 | 1.29 | 87 | -0.1 | 2.69 | 2.74 | 7.4 | – | – | – | –
